Measured values reported in patent EP4628097A1 (Innovent Biologics (Suzhou) Co., Ltd., dated 2025).
Values belong to the molecule of their own block, whether it stands above or below them.

Tests used:
[1] = target: Tie2-Fc (Beijing Sino Biological, Catalog No. 10700-H03H) (UniProt Q02763); assay: ELISA: biotin-Ang2 (0.2 ug/mL) on coated Tie2-Fc, no antibody (blank of the blocking assay)
human VEGF165 = target: T1, human VEGF165 (human, UniProt P15692-4 27-191); assay: BLI (ForteBio), bivalent binding; * exceeds ForteBio detection limit
T1 construct: all are put under this molecule; also called VEGF A; VEGFA

human Ang2 = target: T2, human Ang2 (human, UniProt O15123 19-496, limits assumed); assay: blocking ELISA: biotinylated hAng2 on coated hTie2, antibody titrated from 300 nM
T2 construct: Bought proteins; also called hAng2-biotin; Ang2-Bio (Sino)
T2 sequence (looked up): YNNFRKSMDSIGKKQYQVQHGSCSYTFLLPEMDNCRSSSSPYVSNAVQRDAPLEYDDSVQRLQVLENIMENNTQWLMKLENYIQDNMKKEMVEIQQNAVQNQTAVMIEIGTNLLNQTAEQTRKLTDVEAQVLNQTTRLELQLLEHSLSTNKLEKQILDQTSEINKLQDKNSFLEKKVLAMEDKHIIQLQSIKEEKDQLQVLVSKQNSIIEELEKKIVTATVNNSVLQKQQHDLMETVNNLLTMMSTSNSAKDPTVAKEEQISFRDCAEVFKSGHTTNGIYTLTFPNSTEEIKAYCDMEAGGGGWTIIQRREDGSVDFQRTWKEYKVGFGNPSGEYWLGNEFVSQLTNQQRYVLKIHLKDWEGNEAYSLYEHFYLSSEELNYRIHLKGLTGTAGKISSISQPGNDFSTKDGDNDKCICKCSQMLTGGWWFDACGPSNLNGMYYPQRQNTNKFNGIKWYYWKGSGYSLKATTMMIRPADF

Chain of Tie2-Fc (Beijing Sino Biological, Catalog No. 10700-H03H) (Q02763 23-745 limits assumed): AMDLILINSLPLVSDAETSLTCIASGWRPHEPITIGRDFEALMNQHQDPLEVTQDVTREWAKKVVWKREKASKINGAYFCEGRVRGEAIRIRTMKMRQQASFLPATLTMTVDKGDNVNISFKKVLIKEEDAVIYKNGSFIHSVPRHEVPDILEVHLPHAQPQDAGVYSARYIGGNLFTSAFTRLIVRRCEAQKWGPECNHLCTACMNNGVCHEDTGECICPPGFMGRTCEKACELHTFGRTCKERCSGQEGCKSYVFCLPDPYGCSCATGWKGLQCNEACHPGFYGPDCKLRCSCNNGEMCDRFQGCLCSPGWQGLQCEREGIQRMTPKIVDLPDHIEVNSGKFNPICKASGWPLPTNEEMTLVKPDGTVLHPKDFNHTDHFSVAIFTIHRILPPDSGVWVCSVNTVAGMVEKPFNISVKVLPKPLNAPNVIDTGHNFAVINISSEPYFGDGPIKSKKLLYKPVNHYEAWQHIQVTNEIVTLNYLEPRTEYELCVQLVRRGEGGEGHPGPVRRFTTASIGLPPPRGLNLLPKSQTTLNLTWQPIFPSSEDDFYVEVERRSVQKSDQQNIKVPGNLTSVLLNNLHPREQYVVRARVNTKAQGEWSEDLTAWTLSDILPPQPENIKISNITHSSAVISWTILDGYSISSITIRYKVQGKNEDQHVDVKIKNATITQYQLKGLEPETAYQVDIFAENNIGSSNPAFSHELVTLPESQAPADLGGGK
T1 sequence (P15692 other isoform, or with tags, fused parts or gaps limits assumed): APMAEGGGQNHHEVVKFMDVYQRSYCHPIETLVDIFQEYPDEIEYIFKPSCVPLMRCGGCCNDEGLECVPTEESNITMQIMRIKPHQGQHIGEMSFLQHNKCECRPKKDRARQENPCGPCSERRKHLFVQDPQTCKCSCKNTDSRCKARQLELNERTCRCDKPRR

OD450nm [1]: 3.45 OD450nm
Molecule: human Ang2 (from UniProt O15123 19-496) (ligand)

koff (human VEGF165): ≤ 0.0002 s⁻¹
B1: LA46E11 (VHH)
VHH: QVQLEESGGGLVQPGGSLRLSCVASGSIFSINAMGWHRQAPGSQRELVATMIGGSSTFYADSVNGRFTISRDNAKNTVYLQMNSLKLEDTAVYYCYADVTGRSGTSIWNKRDDYWGQGTLVTVSS
notes: Alpaca immune-library VHH; also called LA46E11 (VEGFA VHH); anti-VEGF A VHH antibody

binding result (human Ang2): binds
B2: IEX04-008 (bispecific antibody)
chain: EVQLLESGGGLVQPGGSLRLSCAASGSIFSINAMGWHRQAPGKQRELVATMIGGSSTFYAESVQGRFTISRDNSKNTVYLQMNSLRAEDTAVYYCYADVTGRSGTSIWNKRDDYWGQGTQVTVSSGGGGSGGGGSEVQLLESGGGLVQPGGSLRLSCAASGSIFSINAMGWHRQAPGKQRELVATMIGGSSTFYAESVQGRFTISRDNSKNTVYLQMNSLRAEDTAVYYCYADVTGRSGTSIWNKRDDYWGQGTQVTVSSGGGGSGGGGSEVQLLESGGGLVQPGGSLRLSCAASGFALDYYAIGWFRQAPGKGLEGVSCISSGEGSTYYADSVKGRFTISRDNSKNTVYLQMNSLRAEDTAVYYCATDSRGDDVACEGLRRNEYDYWGQGTLVTVSS
notes: expressed in 293 cells; also called LA46E11.8 (VHH) + linker + LA46E11.8 (VHH) + LA24C11.10
